B1: replication fork (RF) (mixed)
DNA 1: GACGCTGCCGAATTCTACCAGTGCCTTGCTAGGACATCTTTGCCCACCTGCAGGTTCACCC
DNA 2: GGACATCTTTGCCCACCTGCAGGTTCACCC
DNA 3: TGGGTGAACCTGCAGGTGGGCAAAGATGTCC
DNA 4: GGGTGAACCTGCAGGTGGGCAAAGATGTCCCAGCAAGGCACTGGTAGAATTCGGCAGCGTC
B2: D-loop (mixed)
DNA 1: CATTGCATATTTAAAACATGTTGGAAGGCTCGATGCATGCTGATAGCCTACTAGTGCTGCTGGCTTTCAAATGACCTCTTATCAAGTGAC
DNA 2: GTCACTTGATAAGAGGTCATTTGAATTCATGGCTTAGAGCTTAATTGCTGAATCTGGTGCTGGGATCCAACATGTTTTAAATATGCAATG
DNA 3: CTGCTACGATGCTAGTCGTAGCTCGGCAGTCGTAGCAGGTTCCCAGCACCAGATTCAGCAATTAAGCTCTAAGCCATGAA
B3: DNA bubble (mixed)
DNA 1: B2 DNA 1
DNA 2: B2 DNA 2
B4: Atto565 dsDNA 70 bp with 9-nt homology (dsDNA)
DNA 1: CCGGAGGCCTTAGGCCTTAGGCCTTAGGCCTTCAGCTGTTAGCCTTAGCTAGCTAGCTAGCTAGCTAGCT
DNA 2: AGCTAGCTAGCTAGCTAGCTAGCTAAGGCTAACAGCTGAAGGCCTAAGGCCTAAGGCCTAAGGCCTCCGG

Assays:
[1] = target: BRCA1;BARD1 (human?;human?, UniProt P38398;Q99728 1-1863;1-777, |); experiment: EMSA
[2] = target: BARD1 124-270 (UniProt Q99728 124-270); experiment: EMSA
BARD1 124-270, sequence (Q99728 124-270): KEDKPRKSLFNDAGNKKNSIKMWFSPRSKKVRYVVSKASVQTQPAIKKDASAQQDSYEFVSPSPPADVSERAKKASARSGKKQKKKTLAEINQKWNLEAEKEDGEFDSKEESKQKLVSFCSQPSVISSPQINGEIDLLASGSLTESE

[3] = target: BARD1 (UniProt Q99728 1-777); experiment: Southwestern
BARD1, sequence (Q99728 whole entry): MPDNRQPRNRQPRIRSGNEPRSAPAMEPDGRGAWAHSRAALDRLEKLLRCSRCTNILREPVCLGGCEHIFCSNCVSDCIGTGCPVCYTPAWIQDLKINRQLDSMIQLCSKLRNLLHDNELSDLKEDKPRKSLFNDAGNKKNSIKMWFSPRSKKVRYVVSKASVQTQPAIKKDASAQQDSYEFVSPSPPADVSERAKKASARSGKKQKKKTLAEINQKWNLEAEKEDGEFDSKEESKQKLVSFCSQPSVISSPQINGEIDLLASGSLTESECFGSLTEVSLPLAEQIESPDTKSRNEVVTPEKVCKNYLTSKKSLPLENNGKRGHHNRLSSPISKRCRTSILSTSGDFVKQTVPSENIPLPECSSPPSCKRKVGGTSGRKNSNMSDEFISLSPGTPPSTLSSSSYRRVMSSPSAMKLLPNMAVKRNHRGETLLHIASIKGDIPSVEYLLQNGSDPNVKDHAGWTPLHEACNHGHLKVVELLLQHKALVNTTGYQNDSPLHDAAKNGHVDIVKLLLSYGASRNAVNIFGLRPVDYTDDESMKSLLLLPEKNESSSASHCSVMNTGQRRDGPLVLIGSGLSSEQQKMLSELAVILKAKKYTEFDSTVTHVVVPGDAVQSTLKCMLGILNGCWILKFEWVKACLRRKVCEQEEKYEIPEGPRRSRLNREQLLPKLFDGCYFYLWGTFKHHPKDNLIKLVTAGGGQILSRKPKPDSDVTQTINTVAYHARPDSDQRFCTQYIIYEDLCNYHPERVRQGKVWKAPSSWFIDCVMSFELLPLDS

[4] = target: BRCA1 (UniProt P38398 1-1863); experiment: Southwestern
[5] = target: RAD51;BRCA1;BARD1 (human;human?;human?, UniProt Q06609;P38398;Q99728 1-339;1-1863;1-777, ||); experiment: single-molecule DNA curtain
[6] = target: RAD51 (human, UniProt Q06609 1-339); experiment: single-molecule DNA curtain
RAD51, sequence (Q06609 whole entry): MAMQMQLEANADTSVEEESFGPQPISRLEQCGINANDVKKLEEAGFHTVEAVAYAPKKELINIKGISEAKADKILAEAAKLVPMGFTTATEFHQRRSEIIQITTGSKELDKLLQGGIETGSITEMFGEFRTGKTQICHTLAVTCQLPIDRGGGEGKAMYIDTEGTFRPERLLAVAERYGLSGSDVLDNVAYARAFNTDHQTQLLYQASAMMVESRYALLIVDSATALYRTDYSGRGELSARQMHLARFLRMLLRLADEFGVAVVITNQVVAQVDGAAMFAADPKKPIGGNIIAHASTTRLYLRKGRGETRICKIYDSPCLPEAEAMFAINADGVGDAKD

Binder | binding result [1] | binding result [2] | binding result [3] | binding result [4] | binding result [5] | binding result [6]
B1 | binds |  |  |  |  | 
B2 | binds | binds | binds | binds |  | 
B3 | binds | binds |  |  |  | 
B4 |  |  |  |  | binds | binds

Reference: PMC5800781
